# Measured values from patent US20050059089A1 (priority 2003, published 2005).
# Entries after “also recorded” stand apart in the source; their conditions may differ. Like-named read-outs stand apart in the source and are kept apart here.
# Columns and labels:
# GPCR142 [1] = target: T1, GPCR142 (Homo sapiens, UniProt Q8TDU9, L329S); assay: GTPγS binding assay, GPCR142 expressing cell membranes; format: biochemical; design: The complete coding region of human GPCR142 was PCR-amplified from human genomic DNA; expressed in transfected cells; CHO membranes (GTPγS); HEK293 co-transfected with Gα16 (Ca2+)
# T1 sequence (Q8TDU9 whole entry L329S): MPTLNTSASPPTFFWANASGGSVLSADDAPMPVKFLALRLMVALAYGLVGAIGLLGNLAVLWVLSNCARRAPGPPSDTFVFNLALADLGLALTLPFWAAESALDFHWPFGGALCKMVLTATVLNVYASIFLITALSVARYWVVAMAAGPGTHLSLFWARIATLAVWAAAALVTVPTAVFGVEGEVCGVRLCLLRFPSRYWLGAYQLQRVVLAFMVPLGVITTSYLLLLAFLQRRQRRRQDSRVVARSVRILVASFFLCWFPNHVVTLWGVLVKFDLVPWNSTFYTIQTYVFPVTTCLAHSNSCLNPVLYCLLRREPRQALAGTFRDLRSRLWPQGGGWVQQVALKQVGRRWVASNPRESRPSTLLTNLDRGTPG
# Procedure: (§1) The GPCR142 expression vector described above was transfected into CHO cells using Lipofectamine (Invitrogen) according to the manufacturer's instructions. Two days after transfection, the cells were harvested and the cell membranes were prepared by homogenizing the cells in cold 50 mM Tris-HCl, 5 mM EDTA, pH 7.5 followed by centrifugation at 4° C. 1000 g for 10 min. The supernatant was centrifuged at 4° C. 20,000 g for 30 min and the pellet was re-suspended in GTPγS binding buffer: 50 mM Tris-HCl, pH 7.4, 10 mM MgCl2, 1 mM EDTA, pH 8.0, and 100 mM NaCl using a polytron tissue homogenizer. Protease inhibitors were added to the buffer at concentrations of 1 mM PMSF, 10 μg/ml of pepstatin A, 10 μg/ml of leupeptin. Cell membranes and different concentrations of ligands were added to 96-well plates and incubated at room temperature for 20 min. ^35S-GTPγS (NEN) was then added to each well at a final concentration of […] in a final volume of 200 μL. The reactions were allowed to proceed at room temperature for 1 h, and then the mixtures were filtered though a 96-well GFC filter plate (Packard) and washed with cold washing buffer: 50 mM Tris-HCl, pH 7.4, 10 mM MgCl2. Fifty microliters of Microscint-40 (Packard) was added to each well and the plate was counted on a top counter (TopCount NTX, Packard).
# [2] = tested on: HEK293 cells transfected by Gα16 alone; assay: Ca2+ mobilization assay, HEK293 cells transfected by Gα16 alone; format: cell-based, human; conditions: cells expressing Gα16 alone (no receptor)
# Procedure: (§2) Human embryonic kidney (HEK) 293 cells were transfected with GPCR135,.GPCR142 or co-transfected with Gqi5 (Conklin et al. (1993), Nature 363, 274-280) or Gα16 (Amatruda et al. (1991), Proc. Natl. Acad. Sci. U.S.A. 88, 5587-5591) expressing plasmids using LipofectAmine. Two days after transfection, cells were detached with PBS plus 10 mM EDTA. The detached cells were washed with DMEM-F12 medium (without phenol red, Invitrogen) and seeded in black poly-D lysine coated 96-well plates (BD Biosciences, San Jose, Calif.) at a cell density of 50,000 cell/well.
# GPCR135 [3] = target: T2, GPCR135 (Homo sapiens, UniProt Q9NSD7); assay: Inhibition of forskolin-stimulated cAMP (CRE-β-galactosidase) in SK-N-MC cells; format: cell-based; design: expressed in transfected cells; conditions: SK-N-MC cells stably expressing GPCR135
# T2 sequence (Q9NSD7 1-469): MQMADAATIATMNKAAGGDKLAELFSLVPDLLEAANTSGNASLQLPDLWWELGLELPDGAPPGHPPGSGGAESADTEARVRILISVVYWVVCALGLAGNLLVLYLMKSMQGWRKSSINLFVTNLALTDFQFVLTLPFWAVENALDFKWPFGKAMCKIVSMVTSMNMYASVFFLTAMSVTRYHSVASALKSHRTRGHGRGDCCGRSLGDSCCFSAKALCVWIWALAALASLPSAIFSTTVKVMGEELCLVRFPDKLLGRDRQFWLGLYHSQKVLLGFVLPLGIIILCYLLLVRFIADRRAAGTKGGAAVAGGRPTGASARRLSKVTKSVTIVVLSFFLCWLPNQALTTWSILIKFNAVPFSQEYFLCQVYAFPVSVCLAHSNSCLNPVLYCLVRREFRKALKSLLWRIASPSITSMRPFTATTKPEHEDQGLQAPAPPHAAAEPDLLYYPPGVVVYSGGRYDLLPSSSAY
# Procedure: SK-N-MC cells stably expressing GPCR142 were established by transfection of GPCR142 expressing plasmids into SK-N-MC cells harboring a β-galactosidase gene under control of multiple cAMP responsive elements. The stable transfectants were selected by culturing the transfected cells under G418 selection (400 mg/L). The receptor expressing cells were seeded in 96-well plates at a cell density of 30,000 cells/well. After 24 h, cells were stimulated with forskolin or different peptides. Cells were cultured for an additional 6 h and the intracellular β-gal activity, which represents the intracellular cAMP accumulation, was measured as described by Liu et al. (2000), Mol. Pharmacol., 59, 420-426.
# The same experiment was performed using GPCR135.
# mouse GPCR142 = target: T3, mouse GPCR142 (Mus musculus, UniProt Q7TQP4); assay: Ca2+ mobilization assay, mouse GPCR142 and Gα16; format: cell-based; conditions: cells expressing mouse GPCR142 and Gα16
# T3 construct: The complete coding region of the mouse GPCR142 was deposited in GenBank; expressed in transfected cells; CHO membranes (GTPγS, by the general protocol); HEK293 with Gα16 (Ca2+)
# T3 sequence (Q7TQP4 1-414): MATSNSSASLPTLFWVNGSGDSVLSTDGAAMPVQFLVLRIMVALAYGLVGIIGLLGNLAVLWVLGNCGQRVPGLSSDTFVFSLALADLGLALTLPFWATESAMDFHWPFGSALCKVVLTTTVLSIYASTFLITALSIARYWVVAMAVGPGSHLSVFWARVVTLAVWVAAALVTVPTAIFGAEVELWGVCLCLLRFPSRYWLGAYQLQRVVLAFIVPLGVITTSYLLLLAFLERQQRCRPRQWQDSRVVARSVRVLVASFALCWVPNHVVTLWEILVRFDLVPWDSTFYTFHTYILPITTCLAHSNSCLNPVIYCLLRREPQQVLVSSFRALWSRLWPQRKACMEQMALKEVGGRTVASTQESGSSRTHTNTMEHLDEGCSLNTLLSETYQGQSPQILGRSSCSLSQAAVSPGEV
# Procedure: as §2
# GPCR142 [4] = target: T1, GPCR142; assay: Ca2+ mobilization assay (FLIPR), HEK293 cells co-expressing GPCR142 and Gα16; format: cell-based; design: The complete coding region of human GPCR142 was PCR-amplified from human genomic DNA; expressed in transfected cells; HEK293 co-transfected with Gα16 (Ca2+)
# Procedure: as §2
# GPCR135 [5] = target: T2, GPCR135; assay: GTPγS binding assay, GPCR135 expression membranes; format: biochemical; design: expressed in transfected cells; host or cells: CHO membranes (GTPγS); HEK293 with Gα16 or Gqi5 (Ca2+)
# Procedure: as §1
# The same assay was performed as described above, except using GPCR135 in place of GPCR142.
substance,measurement,setting,value
"relaxin3: Human relaxin3 (SEQ ID NO: 6), produced recombinantly; mature peptide of A- and B-chain linked by disulfide bridges",stimulation of 35S-GTPγS binding (agonist activity),GPCR142 [1],stimulate
same,stimulation of 35S-GTPγS binding (agonist activity),GPCR142 [1]; listed as human recombinant relaxin3,stimulated GTPγS binding
same,stimulation of Ca2+ mobilization,[2],did not respond
same,inhibition of forskolin induced β-galactosidase expression,GPCR135 [3],dose-dependently inhibits
same,Ca2+ response,mouse GPCR142,did not stimulate detectable Ca^2+ response
same,stimulation of Ca2+ mobilization,GPCR142 [4],stimulated Ca2+ mobilization; also recorded: stimulated a strong Ca^2+ signal; also recorded: stimulates Ca^2+ signaling
same,stimulation of GTPγS binding,GPCR135 [5],stimulated GTPγS binding
